Laboratory results as given in PMC7875332.

Molecular target: ACE2 receptor on Vero E6 cells (African green monkey (endogenous in Vero E6))
Test: flow cytometry on cells; HIS-tagged S protein incubated with 1.5 × 10^5 Vero E6 cells (ACE2+), 37°C for 1 hour, in 1% BSA in PBS with 0.02% sodium azide; detected with FITC-labeled anti-HIS Ab

Substance “recombinant SARS-CoV-2 S protein, fused with a HIS tag at the C terminus (from UniProt P0DTC2) (natural protein)” has a concentration at binding saturation of 200 nM.
